Data on one molecule can be found in PMC3439905.

This data set deals with human alpha-thrombin (CD samples) (Homo sapiens, UniProt P00734;P00734 328-363;364-622). The experiment in a line: CD thermal denaturation at 295 nm.

Regarding GGTTGGTGTGGTTGG (structured_DNA) [TBA (thrombin-binding aptamer)], the binding result is on record as “binds”.
